Data taken from patent US11338018B2, “Adrenocorticotropic hormone-based pharmaceutical formulations and methods for fabricating and using thereof” (Harrow IP, LLC, priority 2016, dated 2022).

Assay: Comparative potency (USP corticotropin units) to assess formulation shelf stability
Format: physicochemical
Design: key to Potency: “Failed” refers to the potency after the testing being outside of the USP Corticotropin Units 80-125% range required by the U.S. Pharmacopeia.; “Passed” refers to the potency after the testing being within the 80-125% range required by the U.S. Pharmacopeia
Method: The term “potency” is defined in accordance with the U.S. Pharmacopeia (USP) and refers to the quantity of an active pharmaceutical component in the composition. In accordance with the requirements of the USP, the potency that is required of the corticotropin compositions described below is not less than 80.0 percent and not more than 125.0 percent of the potency stated on the label in USP corticotropin units.
Several compositions were prepared according to the methods illustrated in Examples 1-3. Table 1 provides a comparison of their respective potencies for showing shelf stability. The terms “recombinant porcine” and “recombinant human” refer to synthetic ACTH having the same amino acid sequence as the naturally occurring polypeptide derived from pigs and humans, respectively. […] Unexpectedly, it was observed that addition of L-Methionine in combination with Mannitol improved the shelf stability of Corticotropin Active Pharmaceutical Ingredient. FIGS. 1-4 show potencies of various exemplary compositions from Day 0 to Day 365.

| Sequence | Potency (Cysteine, 1 mg/mL, Mannitol None, pH 4.5-6.5, after 30 days) | Potency (Cysteine, 2 mg/mL, Mannitol 50 mg/mL, pH 4.0-6.0, after 10 days, both accelerated (room temperature) and refrigerated conditions) | Potency (Cysteine, 2 mg/mL, Mannitol 50 mg/mL, pH 4.5-6.6, after 30 days) | Potency (Methionine, 2 mg/mL, Mannitol 50 mg/mL, pH 4.0-6.0, after 10 days, both accelerated (room temperature) and refrigerated conditions) | Potency (Methionine, 3 mg/mL + POLOXAMER 188, 3 mg/mL, Mannitol 50 mg/mL, pH 5.0-6.5, stable after 360 days) | Potency (Methionine, 3 mg/mL, Mannitol 50 mg/mL, pH 4.0-6.0, stable after 365 days) | Potency (Cysteine, 2 mg/mL, Mannitol 50 mg/mL, pH 4.5-6.5, after 60 days) | label amount remaining intact (Cysteine, 2 mg/mL, Mannitol 50 mg/mL, pH 4.5-6.5, day 90) | Potency (Methionine, 2 mg/mL, Mannitol 50 mg/mL, pH 4.5-6.5, stable after 180 days) |
| --- | --- | --- | --- | --- | --- | --- | --- | --- | --- |
| SYSMEHFRWGKPVGKKRRPVKVYPNGAEDELAEAFPLEF (Sythetic construct) [Synthetic porcine] | Failed^1 after | Failed after | Failed after | Failed after | Passed, (“Passed” refers to the potency after the testing being within the 80-125% range required by the U.S. Pharmacopeia.) | Passed, (“Passed” refers to the potency after the testing being within the 80-125% range required by the U.S. Pharmacopeia.) |  |  |  |
| SYSMEHFRWGKPVGKKRRPVKVYPNGAEDESAEAFPLEF [Recombinant human] |  |  |  |  |  |  | Failed after | ^3Followed by even more substantial failure by day 90 (when only about 16.9% of the label amount remaining intact). | Passed^4, (“Passed” refers to the potency after the testing being within the 80-125% range required by the U.S. Pharmacopeia.) |
